Paper PMC9482650, “Quantitative fragmentomics allow affinity mapping of interactomes” (Nature Communications, 2022)

Experiments:
Assay in all cases: holdup assay
Design in all cases: key: below the threshold = too weak to quantify, mostly under pKd 3.1 to 4
[1] = target: IL16_1, Q14005
[2] = target: Inadl_3, Q8NI35
[3] = target: PDLIM1, O00151
[4] = target: T1, SNTB1, Q13884
T1 sequence (Q13884 107-205, limits assumed, looked up): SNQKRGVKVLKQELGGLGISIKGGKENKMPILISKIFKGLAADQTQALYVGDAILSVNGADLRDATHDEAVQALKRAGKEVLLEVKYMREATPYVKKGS

[5] = target: T2, APBA3_1, O96018
T2 sequence (O96018 389-490, limits assumed, looked up): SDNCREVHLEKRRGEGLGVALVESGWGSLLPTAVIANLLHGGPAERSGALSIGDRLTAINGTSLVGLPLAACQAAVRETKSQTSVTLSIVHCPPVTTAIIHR

[6] = target: SCRIB_1, Q14160
SCRIB_1, Q14160, sequence (Q14160 718-814): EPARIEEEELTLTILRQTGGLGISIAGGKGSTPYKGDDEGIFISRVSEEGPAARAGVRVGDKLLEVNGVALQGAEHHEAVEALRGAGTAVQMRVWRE

[7] = target: T3, DFNB31_1, Q9P202
T3 sequence (Q9P202 135-233, limits assumed, looked up): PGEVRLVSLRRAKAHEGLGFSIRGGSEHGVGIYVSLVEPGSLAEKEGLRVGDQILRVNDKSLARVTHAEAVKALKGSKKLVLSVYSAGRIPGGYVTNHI

[8] = target: T4, PDZRN3_1, Q9UPQ7
T4 sequence (Q9UPQ7 244-349, limits assumed, looked up): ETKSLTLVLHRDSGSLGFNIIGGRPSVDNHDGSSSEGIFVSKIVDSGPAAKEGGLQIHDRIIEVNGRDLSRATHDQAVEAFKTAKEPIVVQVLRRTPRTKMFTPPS

[9] = target: T5, RHPN1, Q8TCX5
T5 sequence (Q8TCX5 508-602, limits assumed, looked up): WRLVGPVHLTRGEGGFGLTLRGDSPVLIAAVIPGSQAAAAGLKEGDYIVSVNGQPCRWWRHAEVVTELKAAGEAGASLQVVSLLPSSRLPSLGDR

[10] = target: GORASP2, Q9H8Y8
[11] = target: GORASP1, Q9BQQ3
GORASP1, Q9BQQ3, sequence (Q9BQQ3 1-208): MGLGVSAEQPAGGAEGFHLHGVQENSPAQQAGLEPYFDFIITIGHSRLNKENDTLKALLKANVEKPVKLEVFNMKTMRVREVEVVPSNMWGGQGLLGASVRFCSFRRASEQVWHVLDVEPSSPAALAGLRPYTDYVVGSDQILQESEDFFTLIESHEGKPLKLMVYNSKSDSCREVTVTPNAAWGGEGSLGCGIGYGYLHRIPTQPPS

[12] = target: Inadl_1, Q8NI35
Inadl_1, Q8NI35, sequence (Q8NI35 113-229): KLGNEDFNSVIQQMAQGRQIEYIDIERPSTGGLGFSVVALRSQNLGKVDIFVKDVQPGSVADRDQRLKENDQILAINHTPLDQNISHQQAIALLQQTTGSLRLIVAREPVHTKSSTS

[13] = target: T6, MPP7, Q5T2T1
T6 sequence (Q5T2T1 134-230, limits assumed, looked up): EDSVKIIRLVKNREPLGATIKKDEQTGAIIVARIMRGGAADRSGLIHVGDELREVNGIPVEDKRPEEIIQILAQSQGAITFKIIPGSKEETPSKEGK

[14] = target: T7, MPDZ_5, O75970
T7 sequence (O75970 695-796, limits assumed, looked up): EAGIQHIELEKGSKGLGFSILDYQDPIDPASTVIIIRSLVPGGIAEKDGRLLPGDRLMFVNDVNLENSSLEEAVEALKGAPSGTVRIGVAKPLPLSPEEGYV

[15] = target: SCRIB_3, Q14160
SCRIB_3, Q14160, sequence (Q14160 999-1103): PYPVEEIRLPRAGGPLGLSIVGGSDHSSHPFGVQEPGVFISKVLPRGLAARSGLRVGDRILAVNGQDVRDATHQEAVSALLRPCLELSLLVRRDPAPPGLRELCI

[16] = target: T8, LRRC7, Q96NW7
T8 sequence (Q96NW7 1440-1537, limits assumed, looked up): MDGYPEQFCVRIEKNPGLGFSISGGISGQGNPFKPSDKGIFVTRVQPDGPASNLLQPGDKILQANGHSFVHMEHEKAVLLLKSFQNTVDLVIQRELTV

[17] = target: T9, DVL3, Q92997
T9 sequence (Q92997 244-331, limits assumed, looked up): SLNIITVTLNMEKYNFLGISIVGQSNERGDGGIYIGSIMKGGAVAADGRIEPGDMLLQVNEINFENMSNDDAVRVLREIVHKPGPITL

[18] = target: T10, DLG3_3, Q92796
T10 sequence (Q92796 374-475, limits assumed, looked up): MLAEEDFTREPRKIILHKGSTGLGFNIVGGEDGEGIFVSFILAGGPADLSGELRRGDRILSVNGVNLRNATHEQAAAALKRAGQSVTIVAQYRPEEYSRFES

[19] = target: GRIP2_6, Q9C0E4
GRIP2_6, Q9C0E4, sequence (Q9C0E4 648-740): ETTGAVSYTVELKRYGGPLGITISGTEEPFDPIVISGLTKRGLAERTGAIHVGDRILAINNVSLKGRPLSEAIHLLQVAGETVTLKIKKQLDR

[20] = target: Inadl_4, Q8NI35
Inadl_4, Q8NI35, sequence (Q8NI35 547-651): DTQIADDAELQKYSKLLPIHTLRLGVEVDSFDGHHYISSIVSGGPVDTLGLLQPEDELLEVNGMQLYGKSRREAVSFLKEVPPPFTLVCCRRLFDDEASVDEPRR

[21] = target: NHERF4_1, Q86UT5-2
NHERF4_1, Q86UT5-2, sequence (Q86UT5 other isoform, or with tags, fused parts or gaps): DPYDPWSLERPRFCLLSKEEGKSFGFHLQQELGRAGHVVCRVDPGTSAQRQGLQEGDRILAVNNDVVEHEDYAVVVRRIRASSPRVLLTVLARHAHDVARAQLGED

[22] = target: FRMPD2_1, Q68DX3
FRMPD2_1, Q68DX3, sequence (Q68DX3 770-861): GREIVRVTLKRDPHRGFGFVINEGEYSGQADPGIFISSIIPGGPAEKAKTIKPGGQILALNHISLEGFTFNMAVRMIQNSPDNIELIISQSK

[23] = target: NHERF4_4, Q86UT5
NHERF4_4, Q86UT5, sequence (Q86UT5 464-550): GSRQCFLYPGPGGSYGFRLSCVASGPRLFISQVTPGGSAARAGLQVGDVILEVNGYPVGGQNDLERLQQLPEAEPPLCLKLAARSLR

[24] = target: T11, MPDZ_10, O75970
T11 sequence (O75970 1624-1722, limits assumed, looked up): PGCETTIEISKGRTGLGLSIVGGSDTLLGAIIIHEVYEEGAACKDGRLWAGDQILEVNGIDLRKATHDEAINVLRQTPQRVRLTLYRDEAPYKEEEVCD

[25] = target: DLG2_2, Q15700
DLG2_2, Q15700, sequence (Q15700 189-283): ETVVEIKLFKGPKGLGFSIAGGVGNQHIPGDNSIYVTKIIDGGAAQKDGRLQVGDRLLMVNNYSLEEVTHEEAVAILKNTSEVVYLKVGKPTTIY

[26] = target: TJP1_2, Q07157
TJP1_2, Q07157, sequence (Q07157 181-274): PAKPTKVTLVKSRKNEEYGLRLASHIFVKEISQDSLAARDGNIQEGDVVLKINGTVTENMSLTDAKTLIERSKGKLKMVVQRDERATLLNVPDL

[27] = plain residues with an end cap or a label only (N-terminal biotin on a linker: ado-ado)
[28] = plain residues with an end cap or a label only (N-terminal biotin on a linker: (peg)3)

PDLIM1, O00151, sequence (O00151 1-87): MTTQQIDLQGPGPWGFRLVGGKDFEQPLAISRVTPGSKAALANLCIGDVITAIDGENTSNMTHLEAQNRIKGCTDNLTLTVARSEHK
IL16_1, Q14005, sequence (Q14005 210-306): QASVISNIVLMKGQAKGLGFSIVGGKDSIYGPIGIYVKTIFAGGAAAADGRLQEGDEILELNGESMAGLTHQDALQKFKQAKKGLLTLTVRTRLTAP
Inadl_3, Q8NI35, sequence (Q8NI35 359-469): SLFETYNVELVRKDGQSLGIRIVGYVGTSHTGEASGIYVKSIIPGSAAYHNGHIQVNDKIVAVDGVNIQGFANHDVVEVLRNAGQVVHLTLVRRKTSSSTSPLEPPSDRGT

KSGKQTMLVV [TRIM29, Q14134;Q14134-2]
pKd [1, 27]: below the threshold
pKd [2, 27]: below the threshold
pKd [3, 27]: below the threshold
pKd [4, 27]: below the threshold
pKd [5, 27]: below the threshold
pKd [6, 27]: below the threshold
pKd [7, 27]: below the threshold
pKd [8, 27]: below the threshold
pKd [9, 27]: below the threshold
pKd [10, 27]: 4.6
pKd [11, 27]: 4.34
pKd [12, 27]: below the threshold
pKd [13, 27]: below the threshold
pKd [14, 27]: below the threshold
pKd [15, 27]: below the threshold
pKd [16, 27]: below the threshold
pKd [17, 27]: below the threshold

VYPNAKVELV [PDLIM4_iso2, P50479;P50479-1]
pKd [18, 27]: below the threshold
pKd [19, 27]: below the threshold
pKd [20, 27]: below the threshold
pKd [1, 27]: below the threshold
pKd [21, 27]: 3.98
pKd [3, 27]: below the threshold
pKd [4, 27]: below the threshold
pKd [5, 27]: below the threshold
pKd [6, 27]: below the threshold
pKd [7, 27]: below the threshold
pKd [8, 27]: below the threshold
pKd [9, 27]: below the threshold
pKd [10, 27]: 4.87
pKd [22, 27]: below the threshold
pKd [11, 27]: 4.48
pKd [12, 27]: below the threshold
pKd [13, 27]: below the threshold
pKd [14, 27]: below the threshold
pKd [23, 27]: below the threshold
pKd [15, 27]: below the threshold
pKd [24, 27]: below the threshold
pKd [25, 27]: below the threshold
pKd [16, 27]: below the threshold
pKd [17, 27]: below the threshold

QKNRKAQEDL [CES3, Q6UWW8]
pKd [18, 27]: below the threshold
pKd [19, 27]: below the threshold
pKd [20, 27]: below the threshold
pKd [1, 27]: below the threshold
pKd [2, 27]: below the threshold
pKd [21, 27]: below the threshold
pKd [3, 27]: below the threshold
pKd [4, 27]: below the threshold
pKd [5, 27]: below the threshold
pKd [6, 27]: below the threshold
pKd [7, 27]: below the threshold
pKd [26, 27]: below the threshold
pKd [8, 27]: below the threshold
pKd [9, 27]: below the threshold
pKd [10, 27]: below the threshold
pKd [22, 27]: below the threshold
pKd [11, 27]: below the threshold
pKd [12, 27]: below the threshold
pKd [13, 27]: 3.61
pKd [14, 27]: below the threshold
pKd [23, 27]: below the threshold
pKd [15, 27]: below the threshold
pKd [24, 27]: below the threshold
pKd [25, 27]: below the threshold
pKd [16, 27]: below the threshold
pKd [17, 27]: below the threshold

NLNSSEGVPDLLV [SARS-CoV-E, P59637]
pKd [18, 28]: below the threshold
pKd [19, 28]: below the threshold
pKd [20, 28]: below the threshold
pKd [1, 28]: below the threshold
pKd [2, 28]: below the threshold
pKd [21, 28]: below the threshold
pKd [3, 28]: below the threshold
pKd [4, 28]: below the threshold
pKd [5, 28]: below the threshold
pKd [6, 28]: below the threshold
pKd [7, 28]: below the threshold
pKd [26, 28]: 5.18
pKd [8, 28]: below the threshold
pKd [9, 28]: below the threshold
pKd [10, 28]: below the threshold
pKd [22, 28]: below the threshold
pKd [11, 28]: below the threshold
pKd [12, 28]: below the threshold
pKd [13, 28]: below the threshold
pKd [14, 28]: below the threshold
pKd [23, 28]: below the threshold
pKd [15, 28]: below the threshold
pKd [24, 28]: below the threshold
pKd [25, 28]: below the threshold
pKd [16, 28]: below the threshold
pKd [17, 28]: below the threshold

LPAHHNATRL [SLC34A1, Q06495;Q06495-1]
pKd [18, 27]: below the threshold
pKd [19, 27]: below the threshold
pKd [20, 27]: below the threshold
pKd [1, 27]: below the threshold
pKd [2, 27]: below the threshold
pKd [21, 27]: 4.01
pKd [3, 27]: below the threshold
pKd [4, 27]: below the threshold
pKd [5, 27]: below the threshold
pKd [26, 27]: below the threshold
pKd [10, 27]: below the threshold
pKd [22, 27]: below the threshold
pKd [11, 27]: below the threshold
pKd [12, 27]: below the threshold
pKd [13, 27]: below the threshold
pKd [14, 27]: below the threshold
pKd [23, 27]: below the threshold
pKd [15, 27]: 4.02
pKd [24, 27]: below the threshold
pKd [25, 27]: below the threshold
pKd [16, 27]: below the threshold
pKd [17, 27]: below the threshold

YLEPVLSSEL [ATP2A2, P16615;P16615-3]
pKd [18, 27]: below the threshold
pKd [19, 27]: below the threshold
pKd [20, 27]: below the threshold
pKd [1, 27]: below the threshold
pKd [2, 27]: below the threshold
pKd [21, 27]: 4.39
pKd [4, 27]: below the threshold
pKd [5, 27]: below the threshold
pKd [6, 27]: 4.38
pKd [7, 27]: below the threshold
pKd [26, 27]: below the threshold
pKd [9, 27]: 4.24
pKd [10, 27]: below the threshold
pKd [22, 27]: below the threshold
pKd [11, 27]: below the threshold
pKd [12, 27]: below the threshold
pKd [13, 27]: below the threshold
pKd [14, 27]: below the threshold
pKd [23, 27]: below the threshold
pKd [15, 27]: 4.51
pKd [24, 27]: below the threshold
pKd [25, 27]: below the threshold
pKd [16, 27]: below the threshold
pKd [17, 27]: below the threshold
